Assay [1] has as its target T1, recombinant human ORF1p (LINE-1 open reading frame 1 protein, L1RP) (human, UniProt Q9UN81 1-338).
T1 construct: Expressed in E. coli, tag cleaved, monodisperse homotrimer; Immobilized on the CM5 chip in SPR; also called trimeric ORF1p
T1 sequence: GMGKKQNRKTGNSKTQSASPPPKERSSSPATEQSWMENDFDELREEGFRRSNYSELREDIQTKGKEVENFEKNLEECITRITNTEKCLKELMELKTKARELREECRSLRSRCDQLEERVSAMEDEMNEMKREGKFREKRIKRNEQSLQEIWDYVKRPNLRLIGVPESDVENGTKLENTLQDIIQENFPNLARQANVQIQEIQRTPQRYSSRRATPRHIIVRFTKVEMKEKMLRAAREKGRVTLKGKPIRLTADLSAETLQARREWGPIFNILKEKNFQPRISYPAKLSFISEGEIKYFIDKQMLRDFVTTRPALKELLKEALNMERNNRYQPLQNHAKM
As to the kind of experiment: ELISA screen of conditioned medium, then modified Simoa with Nb-5 or 4H1 beads and ORF1p. The text has this:
GenScript's MonoRab™ immunization and B cell cloning platform was used with purified, recombinant human ORF1p trimers. The 50 best-performing clones, determined by ELISA screening of the conditioned cell medium at multiple dilutions, were selected and used in a modified Simoa assay with two different detector beads (Nb-5, which is the C5 nanobody clone described above, or 4H1 (Sigma-Aldrich)). The ten best clones (62H12, 64C6, 33A8, 61A11, 36D12, 34H7, 50E9, 34C5, 55A6, and 42D10) all yielded up to 5-fold higher signal-to-noise than our best existing reagent, Ab6, (FIG. 13A).
In general terms: An ELISA detects its analyte on a solid surface through an enzyme-linked reagent.

Assay [2] has as its target T1, recombinant human ORF1p (LINE-1 open …). Kind of assay: screen of cloned llama nanobody candidates for binding to ORF1p.

B1: 50E9 (antibody, V domains shown)
VH: QSVEESGGRLVTPGTPLTLTCTVSGFSLSRHYMSWVRQAPGKGLEWIGIIYDDDNRDHASWAKGRFTISRTSTTVDLKITSPTTEDTATYFCARVYASYGYALNLWGQGTLVIVSS
VL: ALVMTQTPPSVSAAVGGTVTINCQASESITNWLAWYQQKPGQPPKLLIYDASKLASGVSSRFSGSGSGTQFTLTISRVQCDDAATYYCQQGYTWNNIDNVFGGGTEVVVK
notes: Rabbit monoclonal antibody; also called 50E9-2
In the case of B1, the binding result in assay [1] is listed as “binds”.

B2: anti-ORF1 Nanobody 1 (Nb1) (VHH)
VHH: DVQLVESGGGLVQAGESLRLSCAASGRTLSSLNMAWFRQVPGKERDFVSLISRSGSTDYVHSVRGRFTISRDNAKNTVYLEMNSLKPEDTAVYYCAADDNYNGRYPFRDEYEYWGQGTQVTVSH
notes: Llama nanobody
Regarding B2, the binding result in assay [2] is “binds”.

These data come from patent US20260176701A1 (BRIGHAM AND WOMEN S HOSPITAL, published 2026).
